Here are results for 3 molecules from patent CN112300289A (UNIV CHINA PHARMA, dated 2021).

The target of assay [1] is T1, 整合素αvβ3 (human, UniProt P06756 31-1048; P05106 27-788).
T1 construct: whole, on cells; The adhesion assay used whole MDA-MB-231 cells; also called 整合素αvβ3受体; 玻连蛋白(Vitronectin,VN)受体
In words: concluded from the MDA-MB-231 cell adhesion assay; no direct binding assay.

The target in assay [2] is TNFα. Kind of assay: cell-based or functional assay.
Sequence of TNFα (P01375 77-233): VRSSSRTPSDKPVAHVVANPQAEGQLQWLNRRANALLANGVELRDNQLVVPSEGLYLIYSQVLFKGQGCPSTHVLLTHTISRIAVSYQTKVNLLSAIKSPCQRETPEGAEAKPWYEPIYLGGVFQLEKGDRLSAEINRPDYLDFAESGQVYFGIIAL

T1 sequence (P06756 31-1048, chain 1 of 2): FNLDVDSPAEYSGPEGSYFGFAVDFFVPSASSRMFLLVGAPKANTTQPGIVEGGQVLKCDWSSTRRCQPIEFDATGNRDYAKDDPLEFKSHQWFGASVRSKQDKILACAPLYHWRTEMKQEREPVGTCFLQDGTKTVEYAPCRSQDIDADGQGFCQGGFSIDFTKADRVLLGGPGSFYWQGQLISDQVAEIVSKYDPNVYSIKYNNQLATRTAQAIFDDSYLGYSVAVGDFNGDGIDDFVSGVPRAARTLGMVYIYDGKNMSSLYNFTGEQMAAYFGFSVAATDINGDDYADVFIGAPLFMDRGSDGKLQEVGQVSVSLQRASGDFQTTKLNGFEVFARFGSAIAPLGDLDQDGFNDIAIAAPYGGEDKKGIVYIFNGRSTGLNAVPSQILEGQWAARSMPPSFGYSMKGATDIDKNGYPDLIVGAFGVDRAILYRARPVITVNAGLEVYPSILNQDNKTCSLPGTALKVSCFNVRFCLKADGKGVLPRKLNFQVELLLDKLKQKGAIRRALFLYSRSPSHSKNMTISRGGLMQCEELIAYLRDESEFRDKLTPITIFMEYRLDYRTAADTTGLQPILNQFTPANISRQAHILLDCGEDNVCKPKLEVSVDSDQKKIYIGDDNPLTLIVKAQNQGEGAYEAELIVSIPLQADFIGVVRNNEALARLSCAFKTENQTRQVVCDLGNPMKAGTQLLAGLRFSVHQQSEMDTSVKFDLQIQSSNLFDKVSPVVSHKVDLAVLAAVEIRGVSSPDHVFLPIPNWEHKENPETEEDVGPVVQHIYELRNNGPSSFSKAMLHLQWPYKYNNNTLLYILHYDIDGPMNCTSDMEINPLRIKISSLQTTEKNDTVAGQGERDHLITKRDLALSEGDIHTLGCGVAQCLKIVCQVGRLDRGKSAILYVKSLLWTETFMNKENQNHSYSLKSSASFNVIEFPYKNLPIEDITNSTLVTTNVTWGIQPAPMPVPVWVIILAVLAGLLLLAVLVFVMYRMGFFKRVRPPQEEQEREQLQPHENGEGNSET
T1 sequence (P05106 27-788, chain 2 of 2): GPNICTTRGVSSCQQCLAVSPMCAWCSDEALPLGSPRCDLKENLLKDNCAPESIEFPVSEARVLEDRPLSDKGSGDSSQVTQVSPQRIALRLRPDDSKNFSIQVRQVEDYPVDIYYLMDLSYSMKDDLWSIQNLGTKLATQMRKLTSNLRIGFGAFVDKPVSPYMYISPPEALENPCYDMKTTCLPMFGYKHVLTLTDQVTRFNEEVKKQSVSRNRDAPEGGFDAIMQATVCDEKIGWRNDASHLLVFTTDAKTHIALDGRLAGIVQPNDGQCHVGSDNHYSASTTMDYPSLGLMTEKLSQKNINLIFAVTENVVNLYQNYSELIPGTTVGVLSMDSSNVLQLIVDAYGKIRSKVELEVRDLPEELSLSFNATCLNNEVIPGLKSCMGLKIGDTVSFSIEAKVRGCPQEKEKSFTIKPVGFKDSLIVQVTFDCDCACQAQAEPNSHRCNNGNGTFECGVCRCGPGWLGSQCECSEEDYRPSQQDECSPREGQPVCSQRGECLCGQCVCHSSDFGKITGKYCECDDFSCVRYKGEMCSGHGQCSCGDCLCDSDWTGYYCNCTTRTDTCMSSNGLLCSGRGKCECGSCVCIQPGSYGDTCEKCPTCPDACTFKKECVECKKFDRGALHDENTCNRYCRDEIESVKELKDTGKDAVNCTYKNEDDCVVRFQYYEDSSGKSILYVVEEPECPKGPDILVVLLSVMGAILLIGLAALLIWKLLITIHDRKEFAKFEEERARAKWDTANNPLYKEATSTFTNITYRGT

B1: RGD4C融合抗TNFα纳米抗体 N端-VHH-Linker-RGD4C-6HIS-C端 (VHH)
VHH: QVQLVESGGGLVQAGGSLRLSCTASGQTSSTADMGWFRQPPGKGREFVARISGIDGTTYYDEPVKGRFTISRDKAQNTVYLQMDSLKPEDTAVYYCRSPRYADQWSAYDYWGQGTQVTVSS
notes: also called V-L-R-H; RGD4C-anti-TNFα-Nanobody
Take B1: the binding result in assay [1] is recorded as “binds”. In assay [2], the “IC50, inhibition of TNFα cytotoxicity on L929 cells (MTT)” value (“IC50, inhibition of TNFα cytotoxicity” for short) amounted to 0.106 nM.

B2: RGD4C融合抗TNFα纳米抗体 N端-VHH-6HIS-Linker-RGD4C-C端 (VHH)
VHH: B1 VHH
Regarding B2, in assay [2], the “IC50, inhibition of TNFα cytotoxicity” value turned out to be 0.113 nM.

B3: RGD4C融合抗TNFα纳米抗体 N端-RGD4C-Linker-6HIS-VHH-C端 (VHH)
VHH: B1 VHH
With B3, the “IC50, inhibition of TNFα cytotoxicity” value in assay [2] turned out to be 0.187 nM.
